Measurements published in patent US20130040886A1 (BOARD OF TRUSTEES OF THE UNIVERSITY OF ILLINOIS, published 2013).
Values belong to the binder of their own block, whether it stands above or below them.

Columns and labels:
[1] = target: T1, α11bβ3 integrin (platelet integrin αIIbβ3) from solubilized human platelets (human, UniProt P08514 32-1039; P05106 27-788); test: peptide affinity column with solubilized human platelets, western blot of eluates
T1 construct: mature; Native protein from solubilized human platelets, detected by immunoblot with Abcam antibodies
From the text: (§1) On this basis, subsequent experiments examined whether G₁₃SR2ₚₑₚ peptide (SEQ ID NO:5) does indeed directly interact with α11bβ₃ and/or one of its associated proteins in human platelets. In this respect, platelet α11bβ₃ integrin is known to exist in a complex with two cytoplasmic proteins, i.e., talin and kindlin-3 (Tadokoro, et al. (2003) Science 302:103-6; Moser, et al. (2008) Nature Med. 14:325-30). To determine whether G₁₃SR2ₚₑₚ, (SEQ ID NO:5) interacts with any of these proteins (or with the entire α11bβ₃, talin, kindlin-3 complex), peptide affinity columns using G₁₃SR2ₚₑₚ (SEQ ID NO:5) were employed. The affinity purified protein(s) from solubilized human platelets that specifically bound to the G₁₃SR2ₚₑₚ peptide were eluted, and analyzed by western blot for α11bβ₃ integrin, talin and kindlin-3. In similar experiments, the eluates from a peptide column using the G₁₃SR2-Random Peptide (SEQ ID NO:9) were also analyzed. […] This was supported by similar experiments using talin antibodies and the kindlin 3 antibody (Abcam).

[2] = target: T2, kindlin 3 (72 kD) from solubilized human platelets (human, UniProt Q86UX7 1-667); test: as above
T2 construct: mature; Native cytoplasmic protein from solubilized human platelets
From the text: as §1

[3] = target: T1, α11bβ3 integrin (platelet integrin …); test: peptide affinity column with solubilized human platelets, immunoblot of eluate
From the text: as §1

[4] = target: T2, kindlin 3 (72 kD) from solubilized …; test: as above
From the text: as §1

[5] = target: T3, α11bβ3-talin-kindlin 3 complex from solubilized human platelets (human, UniProt P08514 32-1039; P05106 27-788; Q9Y490 1-2541; Q86UX7 1-667); test: as above
T3 construct: mature
From the text: as §1

T2 sequence (Q86UX7 whole entry): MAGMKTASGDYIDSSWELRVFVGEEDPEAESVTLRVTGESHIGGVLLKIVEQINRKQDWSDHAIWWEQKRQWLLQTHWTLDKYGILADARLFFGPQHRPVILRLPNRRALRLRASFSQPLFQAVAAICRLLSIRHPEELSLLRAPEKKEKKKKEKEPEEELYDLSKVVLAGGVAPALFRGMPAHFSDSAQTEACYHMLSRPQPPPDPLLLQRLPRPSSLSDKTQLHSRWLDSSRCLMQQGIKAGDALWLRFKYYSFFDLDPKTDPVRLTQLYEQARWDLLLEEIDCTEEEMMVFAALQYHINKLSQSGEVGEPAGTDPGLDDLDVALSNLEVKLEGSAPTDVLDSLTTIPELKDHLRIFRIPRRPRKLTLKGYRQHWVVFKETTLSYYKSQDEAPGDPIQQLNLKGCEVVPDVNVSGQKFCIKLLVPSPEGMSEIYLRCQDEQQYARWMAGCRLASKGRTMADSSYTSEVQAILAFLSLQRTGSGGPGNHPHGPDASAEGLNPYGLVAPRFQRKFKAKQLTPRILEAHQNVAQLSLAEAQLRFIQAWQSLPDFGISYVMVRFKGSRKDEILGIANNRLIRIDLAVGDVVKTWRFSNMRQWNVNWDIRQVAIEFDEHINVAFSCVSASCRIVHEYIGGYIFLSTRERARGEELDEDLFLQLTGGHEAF

- binding result [1]: no binding
- binding result [2]: no binding
B1: G13SR2-Random Peptide, Gly-Phe-Asp-Glu-Trp-Glu-Val-Ser-Phe-Lys-Gly-Cys-Gln-Arg-Arg-Ser-Arg (peptide)
peptide: GFDEWEVSFKGCQRRSR
notes: Control peptide immobilised on a peptide column; also called Random Peptide control

- binding result [3]: binds
- binding result [4]: binds
- binding result [5]: binds
B2: G13 Switch Region 2 peptide (G13SR2pep), Val-Gly-Gly-Gln-Arg-Ser-Glu-Arg-Lys-Arg-Trp-Phe-Glu-Cys-Phe-Asp-Ser (peptide)
peptide: VGGQRSERKRWFECFDS
notes: how it was coupled is not described; also called G13SR2pep peptide; Gα13 SR2 peptide
